Measured values taken from patent US11078246B2, “Peptides binding to Bfl-1” (Dana-Farber Cancer Institute, Inc., priority 2015, dated 2021).
Positions count from the first letter of the chain named. Starred links: 1 amine or outer side, 2 acyl side, 3 side chain; linkers in the order of their positions; H or OH if unused. Positions of bridges follow the written chain, without caps; N, C: chain ends. Non-standard residues stand in square brackets, D forms with d. Residues, ends and D or L forms follow the SMILES beside them. No end group written: not given here. *: point of attachment. Nip(3R) = O=C([C@@H]1CCCN([*:1])C1)[*:2]; S5 = C=CCCC[C@](C)(N)C(=O)O; code J = not defined here; Acryloyl = C=CC(=O)*

What was measured:
[1] = tested on: A375P cells; assay: Cellular uptake by ImageXpress Micro epifluorescence microscopy; type: cell-based, human; details: FITC-labeled peptides, 4 h; data not shown
Protocol: Confocal Microscopy: A375P cells were plated in chambered coverglass (1.5×10^4 cells/well) and cultured as above. […] Cells were washed, stained with MitoTracker Red (Thermo), Hoescht 33342, and imaged live. Confocal images were collected with a Yokogawa CSU-X1 spinning disk confocal (Andor Technology) mounted on a Nikon Ti-E inverted microscope (Nikon Instruments). Images were acquired using a 100×1.4 NA Plan Apo objective lens with an Orca ER CCD camera (Hamamatsu Photonics) and 488 nm laser. Acquisition parameters, shutters, filter positions and focus were controlled by Andor iQ software (Andor Technology). […] Data were collected for five sites per well at 20× magnification, with each treatment performed in triplicate, and then analyzed and quantified using MetaXpress software. […] A custom module in MetaXpress was applied to incrementally recede the CMDR image mask from the cellular border, further restricting the analyzed FITC signal to internalized peptide. The measurement of Total Internalized Fluorescence Intensity (TIFI) represents the level of absolute fluorescence detected per cell, per peptide construct. Maximum and minimum thresholding was utilized to exclude FITC and Cy5 outliers that were much larger and brighter than average, and total intensity and average intensity per cell thresholds were set such that vehicle-treated cells scored negative by the analysis.

[2] = tested on: mouse embryonic fibroblasts (MEFs); assay: as above; type: cell-based; details: FITC-labeled peptides, 4 h; data not shown
[3] = tested on: A375P melanoma cells; assay: Cell viability (CellTiter-Glo); type: cell-based, human; details: 40 μM, over time
Protocol: Cell Viability, LDH Release, and Caspase-3/7 Activation Assays: Cancer cells were cultured using their standard culture media containing 10% FBS and penicillin/streptomycin (A375P: DMEM; SK-MEL-2, SK-MEL-28 and MCF-7: EMEM: A549, H929: RPMI). […] Cell viability and caspase 3/7 activation was measured using CellTiter-Glo and Caspase-Glo 3/7 chemiluminescence reagents (Promega), respectively, and luminescence detected by a microplate reader (Spectramax M5, Molecular Devices). LDH release was quantified after 30 min peptide incubation by plate centrifugation at 1500 rpm for 5 min at 4° C., transfer of 100 μL cell culture media to a clear plate (Corning), incubation with 100 μL LDH reagent (Roche) for 30 min while shaking, and measurement of absorbance at 490 nm on a Spectramax M5 microplate reader. Mitochondrial Cytochrme c Release and Biotinylation Assays: A375P cells were plated in 6-well Corning plates (3×10^5 cells/well) and cultured as above. […] Briefly, pelleted cells were resuspended at 1×10^7 cells/mL in permeabilization buffer (20 mM HEPES/KOH pH 7.5, 250 mM sucrose, 50 mM KCl, 2.5 mM MgCl2) supplemented with 0.025% digitonin and protease inhibitors, followed by incubation on ice for 10 min and centrifugation at 13,000 g.

[4] = tested on: BFL-1ΔC; assay: Covalent conjugation assay of warhead-bearing SAHBs; type: binding, human
Protocol: For warhead-bearing SAHBs, His-BFL-1ΔC C4S/C19S protein was pretreated with 10 mM DTT in 50 mM Tris pH 8.0, 100 mM NaCl for 30 min at RT (final volume, 9.5 μL), and then combined with a 10:1 molar ratio of NOXA SAHBA or BIM SAHBA peptides bearing warheads 1-8 (final volume, 10 μL) for an additional 2 h incubation at RT. Processing for gel electrophoresis and Coomassie staining was performed as above.

[5] = target: T1, MCL-1ΔNΔC (Homo sapiens, UniProt Q07820); assay: as above; type: binding
T1 construct: MCL-1ΔNΔC (aa 170-327) and BCL-XLΔC (aa 1-212) constructs were cloned into pGEX-4T-1; GST (N, cleaved yes); made in house; host or cells: Escherichia coli BL21(DE3)
Protocol: Processing for gel electrophoresis and Coomassie staining was performed as above.

[6] = target: T2, BCL-XLΔC (Homo sapiens, UniProt Q07817); assay: as above; type: binding
T2 construct: MCL-1ΔNΔC (aa 170-327) and BCL-XLΔC (aa 1-212) constructs were cloned into pGEX-4T-1; GST (N, cleaved yes); made in house; host or cells: Escherichia coli BL21(DE3)

[7] = target: T3, GST-MCL-1ΔNΔC (Homo sapiens, UniProt Q07820); assay: Streptavidin pull-down from anti-apoptotic protein mixture; type: binding; details: 1:1:1:1 mixture, 1 μM each, biotinylated SAHB
T3 construct: MCL-1ΔNΔC (aa 170-327) and BCL-XLΔC (aa 1-212) constructs were cloned into pGEX-4T-1; made in house; host or cells: Escherichia coli BL21(DE3)
Protocol: (§1) Streptavidin Pull-down: Recombinant His-BFL-1ΔC, BCL-XLΔC (tagless) and GST-MCL-1ΔNΔC (1 μM each) were combined and reduced with 3 mM DTT in PBS for 30 min at RT, and then incubated with 1 μM biotinylated SAHBA, SAHBA-3 or vehicle for 4 h at RT. The mixtures were then combined with PBS-washed high-capacity SA agarose (Thermo Fisher Pierce) and incubated with rotation for 2 h at RT. The beads were centrifuged at 3000 rpm, washed twice with NP-40 lysis buffer (1% NP40, 50 mM Tris pH 8.0, 100 mM NaCl, 2.5 mM MgCl2), once with PBS, and then bound protein eluted by boiling in 10% SDS containing 10 mg/mL biotin. Inputs (10%) and eluates were electrophoresed on a 12% Bis-Tris gel and then subjected to silver stain and imaging.

[8] = target: T4, His-BFL-1ΔC (Homo sapiens, UniProt Q16548); assay: as above; type: binding; details: 1:1:1:1 mixture, 1 μM each, biotinylated SAHB; relative to SAHB without warhead
T4 construct: cDNA encoding BFL-1ΔC (aa 1-153) was cloned into the pET19b expression vector; made in house; host or cells: Escherichia coli BL21(DE3) LOBSTR
T4 sequence (Q16548 1-153): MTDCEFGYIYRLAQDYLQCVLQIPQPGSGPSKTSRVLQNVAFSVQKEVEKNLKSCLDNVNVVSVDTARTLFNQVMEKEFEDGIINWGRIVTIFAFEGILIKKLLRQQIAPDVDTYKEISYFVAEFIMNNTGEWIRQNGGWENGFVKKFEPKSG
Protocol: as §1

[9] = target: T5, BFL-1ΔC (Homo sapiens, UniProt Q16548); assay: Liposomal release assay with SAHBA-3/BFL-1ΔC conjugates; type: biochemical; details: BFL-1ΔC covalently conjugated to the peptide, 1.5 μM
T5 construct: cDNA encoding BFL-1ΔC (aa 1-153) was cloned into the pET19b expression vector; made in house; host or cells: Escherichia coli BL21(DE3) LOBSTR
T5 sequence (Q16548 1-153): T4 sequence (Q16548 1-153)
Protocol: as §1, with “Inputs (10%) and eluates were electrophoresed on a 12% Bis-Tris gel and then subjected to silver stain and imaging.” left out
Large unilamellar vesicles (LUVs) with encapsulated ANTS and DPX were generated and purified as described (Leshchiner et al., 2013; Lovell et al., 2008). The indicated combinations of BAX (400 nM), tBID (40 nM), and BFL-1ΔC or SAHBA-3/BFL-1ΔC conjugates (1.5 μM), were added to liposomes (5 μL) in 384 well plates (final volume, 30 μL), and released fluorophore was measured over 120 min using an M1000 Infinite plate reader (Tecan) with excitation and emission wavelengths of 355 nm and 520 nm, respectively. […] Percent ANTS/DPX release was calculated as [(F−F0)/(F100−F0)]×100, where F0 is baseline fluorescence at time 0, F is the fluorescence recorded for each time point, and F100 is the maximum amount of ANTS/DPX release based on liposomal treatment with 1% Triton X-100.

[10] = target: T6, HA-BFL-1ΔC C4S/C19S (Homo sapiens, UniProt Q16548, C19S/C4S); assay: Crosslinking in lysates of transfected 293T cells; type: binding; details: 293T lysate
T6 construct: cDNA encoding BFL-1ΔC (aa 1-153) was cloned into the pET19b expression vector; expressed in transfected cells; host or cells: 293T
T6 sequence (Q16548 1-153 C4S/C19S): T4 sequence (Q16548 1-153) with C4S, C19S
Protocol: 293T cells were maintained in DMEM containing 10% FBS and penicillin/streptomycin, and transfections performed with 2 μg pCMV plasmid containing HA-BFL-1ΔC C4S/C19S using X-tremeGENE 9 (Roche). For lysate experiments, cells were trypsinized 24 hours post-transfection, washed with PBS, and lysed by incubation with 1% CHAPS lysis buffer (150 mM NaCl, 50 mM Tris pH 7.4, 100 mM DTT). Protein concentration of the soluble fraction was measured using a BCA kit according to manufacturer's instructions (Thermo Scientific). […] Samples were then boiled in LDS buffer and subjected to western analysis using 1:1000 dilutions of HA (Sigma-Aldrich. #12CA5) and biotin (Abcam, #53494) antibodies. To evaluate the capacity of biotinylated SAHBs to compete with tBID for interactions with BFL-1 and MCL-1, 293T cells were transfected with either HA-BFL-1ΔC C4S/C19S or FLAG-MCL-1 in the p3XFLAG-CMV-10 vector (Sigma) as above. After 24 h, cells were trypsinized, washed with PBS, lysed in 1% CHAPS buffer, and the supernatant collected for protein concentration determination by BCA kit. […] The mixtures were then subjected to HA or FLAG (Sigma-Aldrich, F7425) immunoprecipitation, followed by western analysis using 1:1000 dilutions of HA, FLAG, biotin, and BID (Santa Cruz sc-11423) antibodies. […] Cells were harvested and lysed as above, and incubated overnight with anti-HA agarose beads (Pierce). […]

T2 sequence (Q07817 1-212, stated change not applied): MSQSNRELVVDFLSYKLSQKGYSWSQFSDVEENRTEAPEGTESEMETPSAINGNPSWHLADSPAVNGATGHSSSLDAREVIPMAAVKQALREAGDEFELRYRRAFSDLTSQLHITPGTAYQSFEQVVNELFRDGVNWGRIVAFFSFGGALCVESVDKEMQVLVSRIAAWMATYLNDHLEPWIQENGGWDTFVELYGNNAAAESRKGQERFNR
T3 sequence (Q07820 170-327, stated change not applied): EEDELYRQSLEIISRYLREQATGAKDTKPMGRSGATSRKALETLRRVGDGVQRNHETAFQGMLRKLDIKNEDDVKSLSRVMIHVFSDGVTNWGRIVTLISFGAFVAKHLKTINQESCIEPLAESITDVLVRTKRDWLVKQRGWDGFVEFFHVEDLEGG
T1 sequence (Q07820 170-327, stated change not applied): as above

Molecule	cellular uptake [1]	cellular uptake [2]	cytotoxicity compared to BIM SAHBA1 [3]	reactivity with BFL-1 constructs WT, C4S/C19S, C55S, C4S/C19S/C55S [4]	reactivity with MCL-1ΔNΔC [5]	reactivity with BCL-XLΔC [6]	MCL-1ΔNΔC engagement in SA pull-down [7]	BFL-1ΔC engagement in SA pull-down [8]	BFL-1ΔC suppression of tBID-triggered BAX-mediated liposomal release [9]	reactivity with other lysate proteins (biotin western) [10]	molecular weight shift of HA-BFL-1ΔC C4S/C19S (anti-HA western) ([10]; biotinylated peptide 10 μM, 2 h)
C=CC(=O)N1CCC[C@@H](C(=O)N[C@H](C(=O)N[C@@H](C)C(=O)N[C@@H](CCC(N)=O)C(=O)N[C@@H](CCC(=O)O)C(=O)N[C@@H](CC(C)C)C(=O)N[C@@H](CCCNC(=N)N)C(=O)N[C@@]2(C)CCCC=CCCC[C@@](C)(C(=O)N[C@@H](Cc3ccccc3)C(=O)N[C@@H](CC(N)=O)C(=O)N[C@@H](C)C(=O)N[C@@H](Cc3ccc(O)cc3)C(=O)N[C@@H](Cc3ccc(O)cc3)C(=O)N[C@@H](C)C(=O)N[C@@H](CCCNC(=N)N)C(=O)N[C@@H](CCCNC(=N)N)C(N)=O)NC(=O)[C@H](CC(=O)O)NC(=O)CNC(=O)[C@H]([C@@H](C)CC)NC2=O)[C@@H](C)CC)C1 [BIM SAHBA-3] (Acryloyl-[Nip(3R)]IAQELR[S5]IGD[S5]FNAYYARR-NH2; staple 8-12; N-terminus and C-terminus assumed)	equivalent cellular uptake	equivalent cellular uptake	significant enhancement in cytotoxicity over time	–	–	–	–	–	–	–	–
NOXA SAHBA-3: NOXA SAHBA (aa 21-43) capped at L21 with D-nipecotic acid acrylamide warhead 3; JEVESATQLRXFGDXLNFRQKLL (SEQ ID NO:24) ([code J]EVESATQLR[S5]FGD[S5]LNFRQKLL; staple 11-15; reading uncertain)	–	–	–	exclusive reactivity with the WT and BFL-1 C4S/C19S constructs	did not react	did not react	relatively less	notably more	the inhibitory function of BFL-1 was lost	little to no non-specific reactivity	prominent molecular weight shifts
